Ends that are not written are not given here.
Columns and labels:
[1] = molecular target: T1, recombinant human β2-glycoprotein I (human, UniProt P02749 20-345); test: SPR (Biacore), chemically synthesized tPA F immobilized (395 RU)
T1 construct: Said to hold more cross-β structure conformation than plasma β2GPI; also called recombinant β2GPI; rec. β2GPI
T1 sequence (looked up): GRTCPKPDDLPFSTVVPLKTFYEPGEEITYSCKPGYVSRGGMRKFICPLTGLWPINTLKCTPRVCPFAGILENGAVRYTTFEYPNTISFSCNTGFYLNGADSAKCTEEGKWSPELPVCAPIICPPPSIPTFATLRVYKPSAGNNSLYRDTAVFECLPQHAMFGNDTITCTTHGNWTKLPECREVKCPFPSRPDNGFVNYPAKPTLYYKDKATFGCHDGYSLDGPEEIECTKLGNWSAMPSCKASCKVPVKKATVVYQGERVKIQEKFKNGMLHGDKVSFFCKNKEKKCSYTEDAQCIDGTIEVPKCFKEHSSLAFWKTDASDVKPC
Procedure: Then, the proteins were covalently coupled to the activated dextran surface. Remaining activated groups in each of the four flow channels were blocked by injection of 35 μl of 1 M ethanolamine hydrochloride pH 8.5. EDC, NHS and ethanolamine hydrochloride were obtained from Biacore. […] The running buffer during immobilization was 10 mM HEPES pH 7.4, 140 mM NaCl. Buffers were filtrated on a 0.22 μm filter (white GSWP, 47 mm, Millipore) and degassed at room temperature.

[2] = molecular target: T1, recombinant human β2-glycoprotein I; test: SPR (Biacore), chemically synthesized HGFA F immobilized (190 RU)
Procedure: The running buffer during immobilization was 10 mM HEPES pH 7.4, 140 mM NaCl. Buffers were filtrated on a 0.22 μm filter (white GSWP, 47 mm, Millipore) and degassed at room temperature.
Regeneration buffer was running buffer supplemented with 1 M NaCl.

B1: chemically synthesized tPA F domain (other)
chain: SYQVICRDEKTQMIYQQHQSWLRPVLRSNRVEYCWCNSGRAQCHSVPVKSK
modifications: cysteine pairing not given here; also: C-terminal lysine acetylated or biotinylated
notes: domain: F domain; Made from two peptides by native chemical ligation
[1]
  binding result: no binding (tested: 0-300 mM (so in the source))

B2: chemically synthesized HGFA F domain (other, UniProt Q04756 200-240, looked up)
chain: EKCFDETRYEYLEGGDRWARVRQGHVEQCECFGGRTWCEGT
modifications: cysteine pairing not given here; also: acetylated lysine, position not given here
notes: as for B1
[2]
  binding result: no binding (tested: 0-300 mM (so in the source))

From patent publication US8114832 (UMC UTRECHT HOLDING B V, dated 2012)
